These results are taken from patent US11702666B2, “Cell-based assay for determining activity in the retinoblastoma pathway” (Medical Diagnostic Laboratories, LLC, priority 2017, dated 2023).

The assay deals with Rb/E2F1-Dp-1 complex. Briefly: CDK4 mutant activity / drug resistance in NanoBiT assay, stable cell line #11. It is filed as cell-based, human. The note with it: for luciferase signal compared to WT CDK4 (in words): no drug; for Observed drug resist.: Palbociclib/Ribociclib, KD = kinase dead. As for the experimental part: A linear expression cassette of mutated CDK4 or CDK6 was generated by PCR mediated overlapping extension method. A pair of forward and reverse primers containing the targeted mutations was designed. The mutated codon was located in the middle of a primer flanked by 18-21 nucleotides on each side. Two PCRs (named as PCR #1 and PCR #2 in FIG. 1) were performed using UF-CMV forward and mutated reverse primers, or mutated forward and BGH-UR primers. The PCR products were cleaned up by ExoSAP-IT® (Affymetrix) to remove unconsumed dNTPs and primers. The treated PCR products were mixed together followed by dilution with water. A second round of PCR was performed using the diluted PCR mixture, and the UF and UR primers (FIG. 1). The amplified products were gel-purified. The DNA concentration was quantitated by the optical density at 260 nm using Nanodrop. The targeted mutations were incorporated in the CDK4 or CDK6 genes during the PCR mediated overlapping extension method. The introduced mutations were confirmed by the DNA sequencing.
To examine the ability of the assay to detect variants in CDK4 or CDK6 that affect function, kinase dead mutants and COSMIC (Catalogue Of Somatic Mutations in cancer) unknown mutants were created. For comparison, hyperactive CDK4 or CDK6 mutants known to be hyperactive due to less binding to natural inhibitor p16 were also created. The mutations in CDK4 or CDK6 were created by site-directed mutagenesis. WT or mutated CDK4 or CDK6 along with the CyclinD1 and SB-Rb were co-transfected, under similar conditions as previously indicated (see FIG. 9).
To examine the specificity of the assay, particular CDK4 kinase dead mutants were created. Modifications to D158 were made by changing aspartate to nonpolar alanine (D158A) or positively charged arginine (D158R). […] The mutations in CDK4 were created by site-directed mutagenesis. WT or mutated CDK4 along with the CyclinD1 and SB-Rb was co-transfected into the #11 cell line, under the same conditions as previously indicated. […] Kinase dead mutants have the high signal due to inability to phosphorylate Rb.
Computer modeling was used to reveal the drug-binding pocket and predict drug-resistant mutants. The mutations in CDK4 and CDK6 were created by site-directed mutagenesis. WT or mutated CDK4 or CDK6 along with the CyclinD1 and SB-Rb was co-transfected into #11 cell line, under the same conditions as previously indicated. […] Dose response curves are presented on FIG. 13A and FIG. 13B. Activity of other mutants was very similar to the WT or KD.
CDK4 and CDK6 mutants with known function and unknown function taken from the COSMIC database were analyzed in the present assay and are summarized in Table 7A and Table 7B. The mutants were classified according to their activity. Table 7A and Table 7B also show the number of counts per mutant in the COSMIC database, type of cancer, and luciferase activity compared to the WT (being 100%).

[1] abbreviates: predicted drug resistant CDK4 mutants, relative to WT.
Setting [2] is: predicted drug resistant CDK4 mutants.

Entries after “also recorded” stand apart in the source; their conditions may differ.

B1: CDK4 R24C: hyperactive CDK4 mutant, COSMIC database (protein, UniProt P11802 2-303, looked up, variant R24C)
Cyclin-dependent kinase 4: ATSRYEPVAEIGVGAYGTVYKACDPHSGHFVALKSVRVPNGGGGGGGLPISTVREVALLRRLEAFEHPNVVRLMDVCATSRTDREIKVTLVFEHVDQDLRTYLDKAPPPGLPAETIKDLMRQFLRGLDFLHANCIVHRDLKPENILVTSGGTVKLADFGLARIYSYQMALTPVVVTLWYRAPEVLLQSTYATPVDMWSVGCIFAEMFRRKPLFCGNSEADQLGKIFDLIGLPPEDDWPRDVSLPRGAFPPRGPRPVQSVVPEMEESGAQLLLEMLTFNPHKRISAFRALQHSYLHKDEGNPE
In the case of B1, the “Luc. activity (/wt)” value (CDK4 mutants, compared to the WT (being 100%)) is listed as 91%. For the same molecule, the “luciferase signal compared to WT CDK4 (in words)” value (CDK4 mutants) is given as “a little bit lower basal signal than WT”.

B2: CDK4 T102K: predicted drug resistant CDK4 mutant (protein, UniProt P11802 2-303, looked up, variant T102K)
Cyclin-dependent kinase 4: ATSRYEPVAEIGVGAYGTVYKARDPHSGHFVALKSVRVPNGGGGGGGLPISTVREVALLRRLEAFEHPNVVRLMDVCATSRTDREIKVTLVFEHVDQDLRKYLDKAPPPGLPAETIKDLMRQFLRGLDFLHANCIVHRDLKPENILVTSGGTVKLADFGLARIYSYQMALTPVVVTLWYRAPEVLLQSTYATPVDMWSVGCIFAEMFRRKPLFCGNSEADQLGKIFDLIGLPPEDDWPRDVSLPRGAFPPRGPRPVQSVVPEMEESGAQLLLEMLTFNPHKRISAFRALQHSYLHKDEGNPE
Turning to B2, the Luc. activity (/wt) under setting [1] was 162%. In addition, under setting [2], the Observed drug resist. result is reported as “showed drug resistance; also recorded: Resistant”.

B3: CDK4 A33S: predicted drug resistant CDK4 mutant (protein, UniProt P11802 2-303, looked up, variant A33S)
Cyclin-dependent kinase 4: ATSRYEPVAEIGVGAYGTVYKARDPHSGHFVSLKSVRVPNGGGGGGGLPISTVREVALLRRLEAFEHPNVVRLMDVCATSRTDREIKVTLVFEHVDQDLRTYLDKAPPPGLPAETIKDLMRQFLRGLDFLHANCIVHRDLKPENILVTSGGTVKLADFGLARIYSYQMALTPVVVTLWYRAPEVLLQSTYATPVDMWSVGCIFAEMFRRKPLFCGNSEADQLGKIFDLIGLPPEDDWPRDVSLPRGAFPPRGPRPVQSVVPEMEESGAQLLLEMLTFNPHKRISAFRALQHSYLHKDEGNPE
Take B3: the Luc. activity (/wt) under setting [1] was 182%.

B4: CDK4 F931 T102K: CDK4 double mutant F93I and T102K (protein, UniProt P11802 2-303, looked up, variant F93I T102K)
Cyclin-dependent kinase 4: ATSRYEPVAEIGVGAYGTVYKARDPHSGHFVALKSVRVPNGGGGGGGLPISTVREVALLRRLEAFEHPNVVRLMDVCATSRTDREIKVTLVIEHVDQDLRKYLDKAPPPGLPAETIKDLMRQFLRGLDFLHANCIVHRDLKPENILVTSGGTVKLADFGLARIYSYQMALTPVVVTLWYRAPEVLLQSTYATPVDMWSVGCIFAEMFRRKPLFCGNSEADQLGKIFDLIGLPPEDDWPRDVSLPRGAFPPRGPRPVQSVVPEMEESGAQLLLEMLTFNPHKRISAFRALQHSYLHKDEGNPE
For B4, the Luc. activity (/wt) under setting [1] was 152%. Moreover, under setting [2], the Observed drug resist. result was “Resistant”.

B5: CDK4 A157S: predicted drug resistant CDK4 mutant (protein, UniProt P11802 2-303, looked up, variant A157S)
Cyclin-dependent kinase 4: ATSRYEPVAEIGVGAYGTVYKARDPHSGHFVALKSVRVPNGGGGGGGLPISTVREVALLRRLEAFEHPNVVRLMDVCATSRTDREIKVTLVFEHVDQDLRTYLDKAPPPGLPAETIKDLMRQFLRGLDFLHANCIVHRDLKPENILVTSGGTVKLSDFGLARIYSYQMALTPVVVTLWYRAPEVLLQSTYATPVDMWSVGCIFAEMFRRKPLFCGNSEADQLGKIFDLIGLPPEDDWPRDVSLPRGAFPPRGPRPVQSVVPEMEESGAQLLLEMLTFNPHKRISAFRALQHSYLHKDEGNPE
Regarding B5, under setting [1], the Luc. activity (/wt) is 195%.

B6: CDK4 F93I: predicted drug resistant CDK4 mutant (protein, UniProt P11802 2-303, looked up, variant F93I)
Cyclin-dependent kinase 4: ATSRYEPVAEIGVGAYGTVYKARDPHSGHFVALKSVRVPNGGGGGGGLPISTVREVALLRRLEAFEHPNVVRLMDVCATSRTDREIKVTLVIEHVDQDLRTYLDKAPPPGLPAETIKDLMRQFLRGLDFLHANCIVHRDLKPENILVTSGGTVKLADFGLARIYSYQMALTPVVVTLWYRAPEVLLQSTYATPVDMWSVGCIFAEMFRRKPLFCGNSEADQLGKIFDLIGLPPEDDWPRDVSLPRGAFPPRGPRPVQSVVPEMEESGAQLLLEMLTFNPHKRISAFRALQHSYLHKDEGNPE
Regarding B6, the Luc. activity (/wt) under setting [1] was 157%. Besides, the Observed drug resist. result under setting [2] is on record as “showed drug resistance; also recorded: Resistant”.

B7: CDK4 D158D: CDK4 control with one nucleotide substitution that did not change the amino acid (protein, UniProt P11802 2-303, looked up)
Cyclin-dependent kinase 4: ATSRYEPVAEIGVGAYGTVYKARDPHSGHFVALKSVRVPNGGGGGGGLPISTVREVALLRRLEAFEHPNVVRLMDVCATSRTDREIKVTLVFEHVDQDLRTYLDKAPPPGLPAETIKDLMRQFLRGLDFLHANCIVHRDLKPENILVTSGGTVKLADFGLARIYSYQMALTPVVVTLWYRAPEVLLQSTYATPVDMWSVGCIFAEMFRRKPLFCGNSEADQLGKIFDLIGLPPEDDWPRDVSLPRGAFPPRGPRPVQSVVPEMEESGAQLLLEMLTFNPHKRISAFRALQHSYLHKDEGNPE
modifications: silent D158D nucleotide variant
As for B7, the “luciferase signal compared to WT CDK4 (in words)” value (CDK4 mutants) is on record as “the same activity as a WT”.

B8: CDK4 I12L: predicted drug resistant CDK4 mutant (protein, UniProt P11802 2-303, looked up, variant I12L)
Cyclin-dependent kinase 4: ATSRYEPVAELGVGAYGTVYKARDPHSGHFVALKSVRVPNGGGGGGGLPISTVREVALLRRLEAFEHPNVVRLMDVCATSRTDREIKVTLVFEHVDQDLRTYLDKAPPPGLPAETIKDLMRQFLRGLDFLHANCIVHRDLKPENILVTSGGTVKLADFGLARIYSYQMALTPVVVTLWYRAPEVLLQSTYATPVDMWSVGCIFAEMFRRKPLFCGNSEADQLGKIFDLIGLPPEDDWPRDVSLPRGAFPPRGPRPVQSVVPEMEESGAQLLLEMLTFNPHKRISAFRALQHSYLHKDEGNPE
For the molecule B8, under setting [1], the Luc. activity (/wt) was 126%.

B9: CDK4 T102R: predicted drug resistant CDK4 mutant (protein, UniProt P11802 2-303, looked up, variant T102R)
Cyclin-dependent kinase 4: ATSRYEPVAEIGVGAYGTVYKARDPHSGHFVALKSVRVPNGGGGGGGLPISTVREVALLRRLEAFEHPNVVRLMDVCATSRTDREIKVTLVFEHVDQDLRRYLDKAPPPGLPAETIKDLMRQFLRGLDFLHANCIVHRDLKPENILVTSGGTVKLADFGLARIYSYQMALTPVVVTLWYRAPEVLLQSTYATPVDMWSVGCIFAEMFRRKPLFCGNSEADQLGKIFDLIGLPPEDDWPRDVSLPRGAFPPRGPRPVQSVVPEMEESGAQLLLEMLTFNPHKRISAFRALQHSYLHKDEGNPE
Regarding B9, under setting [1], the Luc. activity (/wt) was 156%.

B10: CDK4 L49R: predicted drug resistant CDK4 mutant (protein, UniProt P11802 2-303, looked up, variant L49R)
Cyclin-dependent kinase 4: ATSRYEPVAEIGVGAYGTVYKARDPHSGHFVALKSVRVPNGGGGGGGRPISTVREVALLRRLEAFEHPNVVRLMDVCATSRTDREIKVTLVFEHVDQDLRTYLDKAPPPGLPAETIKDLMRQFLRGLDFLHANCIVHRDLKPENILVTSGGTVKLADFGLARIYSYQMALTPVVVTLWYRAPEVLLQSTYATPVDMWSVGCIFAEMFRRKPLFCGNSEADQLGKIFDLIGLPPEDDWPRDVSLPRGAFPPRGPRPVQSVVPEMEESGAQLLLEMLTFNPHKRISAFRALQHSYLHKDEGNPE
With B10, the Luc. activity (/wt) under setting [1] was 281%.

B11: CDK4 G18A: predicted drug resistant CDK4 mutant (protein, UniProt P11802 2-303, looked up, variant G18A)
Cyclin-dependent kinase 4: ATSRYEPVAEIGVGAYATVYKARDPHSGHFVALKSVRVPNGGGGGGGLPISTVREVALLRRLEAFEHPNVVRLMDVCATSRTDREIKVTLVFEHVDQDLRTYLDKAPPPGLPAETIKDLMRQFLRGLDFLHANCIVHRDLKPENILVTSGGTVKLADFGLARIYSYQMALTPVVVTLWYRAPEVLLQSTYATPVDMWSVGCIFAEMFRRKPLFCGNSEADQLGKIFDLIGLPPEDDWPRDVSLPRGAFPPRGPRPVQSVVPEMEESGAQLLLEMLTFNPHKRISAFRALQHSYLHKDEGNPE
B11: the Luc. activity (/wt) under setting [1] was 97.5%.
